“Also recorded” adds a separate entry of the source.
How the values were obtained:
DLL4 = DLL4 expression in mature osteoclasts by qRT-PCR; type: cell-based, mouse
From the text: DLL-4 expression is repressed in the presence of […] and IL-17 but can be de-repressed by RANKL. Having identified that DLL4 was required for osteoclasts to induce Foxp3 expression in CD8+ T cells we next tested if DLL-4 expression was affected by pro-inflammatory cytokines. […] As RANKL induced DLL4 in osteoclast precursors, it was hypothesized that adding additional RANKL may overcome the repression of DLL4 by TNFα. To assess the reversibility of DLL4 expression, mature osteoclasts were cultured overnight in 50 ng/ml RANKL and 20 ng/ml […], and then additional RANKL was added to the culture media (while maintaining 20 ng/ml TNFα) as shown in FIG. 5E. Indeed, addition of RANKL overcomes (within 24 hours) the repression of DLL4 by TNFα as assessed by qRT-PCR. […] The experiment was performed as above, but in this case FoxP3 induction in OT-I CD8 T-cells in the presence of OVA and either 10 ng/ml or 20 ng/ml TNFα was measured.
Osteoclasts seeded on day 4 at 1.5×10^6 cells/ml were used in all experiments. RNA was isolated at time point described in Figure legends. 10 to 50 ng of RNA was used for first-strand cDNA synthesis in 50 μL reaction per kit instructions (Superscript III cDNA synthesis system; Invitrogen). In all cases 10% of the cDNA product was used in a 50 μL PCR reaction that contained 10 μM each forward and reverse primers. For quantitative PCR (qPCR) SYBR green system (Invitrogen) was used. Otherwise, cDNA was amplified (25 cycles) and the products resolved on 1.2% agarose gel and visualized by ethidium bromide staining.

TNFα and IL17A = test: Once per month low-dose RANKL or Zoledronate: cytokines from peripheral blood cells by multiplexed ELISA; type: in vivo, mice; conditions: 120 days post-OVX; RANKL 0.125 mg/kg once per month; ZA once 3 weeks post-OVX
Protocol: (§1) To assess the kinetics of a single treatment, C57BL/6J ovariectomized mice were treated with low-dose RANKL (administered twice 24 hrs apart, 2 weeks post-OVX) and then followed by serum CTX assay. […] In FIG. 11B, to assess whether multiple treatments are effective, sham-operated (Sx) or OVX 12-week old C57BL/6J mice were treated with low-dose RANKL (0.125 mg/kg) once per month or once with the bisphosphonate Zoledronate (ZA; 3 weeks post-OVX). 120 days post-OVX peripheral blood obtained by mandible bleeds was treated to remove RBCs (BD Pharmalyse) then 1 to 3×10^6 cells were plated per well in triplicate (6 mice/group). Media was collected after 36 hours of culturing and cytokine levels quantitated by multiplexed ELISA (Millipore).

ovariectomized mice [1] = test: Low dose RANKL in ovariectomized mice (TcREG, serum CTX, μCT, bone formation); type: in vivo
Protocol: Representative FACS contour plots are shown on the first and second panel and the distribution (N=8 mice per group) is shown in the third panel. […] In these experiments (panels C-F), we used ex vivo generated TcREG as a positive control/comparator. […] Arrows are shown to emphasize the distance between dyes.
it was then determined that RANKL induces functional TcREG in ovariectomized mice. Having shown that RANKL could restore the ability of osteoclasts to induce FoxP3 expression in the presence of TNFα in vitro, we tested the ability of RANKL to induce TcREG in ovariectomized mice, as proof of principle for de-repression by increased levels of RANKL in pro-inflammatory environment. Again, a dose of RANKL that induced the highest levels of TcREG in vivo (FIG. 1A) was used. Administration of love dose RANKL to ovariectomized mice increased TcREG numbers by an average of 1.8-fold (FIG. 6A). To determine whether this increase in TcREG numbers affected bone resorption in ovariectomized mice, levels of bone resorption and bone formation rates in these (low-dose) RANKL-treated mice were measured. As it has been previously established that ex vivo generated OC-iTcREG limit bone resorption, increased bone mass, decreased activated effector T-cells, and increases bone formation and mineral apposition rates, this treatment was used as a benchmark in these experiments.
Bilateral ovariectomy was performed on 12-14 week old mice. Mice were anesthetized using 2.5% isoflurane to initiate anesthesia, and 1% for maintenance. The ovaries were accessed through a single incision in the skin, and exteriorized through muscle wall on each side. Each ovary was clamped using hemostat and removed by a single cut. Skin staples (3M) were used to close the skin incision. To minimize discomfort post-surgery, 0.025 mg/kg Buprenorphine was administered subcutaneously. Zoledronate (Selleck Chemicals) was administered at 30 μg/kg via tail vein.
(§2) Food was withdrawn 6 to 10 hours prior to bleeding. Peripheral blood (100 to 200 μL) obtained via sub-mandibular vein, was allowed to clot for 2 hours at room temperature and serum collected by spinning down the cell pellet. Serum C-terminal telopeptide of type 1 collagen (serum CTX) was measured using ELISA according to the manufacturer's instructions (Immunodiagnostic Systems, Plc)
The bones were scanned in μCT40 (Scanco Medical) at 55 kVp, 145 μA, and resolution of 16 μm. Gauss sigma of 1.2, Gauss support of 2, lower threshold of 237, and upper threshold of 1000 were used for all the analysis. Regions of interest were selected 50 slices below the growth plate of the proximal tibia to evaluate the trabecular compartment. Bone mineral density was obtained by quantitative μCT using Scanco Phantoms for calibration^49. All μCT data and bone histomorphometry data was collected and analyzed by C.Y, who was blinded to the treatment performed on the mouse samples.

ovariectomized mice [2] = test: Kinetics of a single low-dose RANKL treatment followed by serum CTX; type: in vivo; conditions: twice 24 hrs apart, 2 weeks post-OVX
Protocol: as §2, §1

B1: receptor activator of NF-κB ligand (protein, UniProt O35235 139-316, looked up)
Tumor necrosis factor ligand …: FSGAPAMMEGSWLDVAQRGKPEAQPFAHLTINAASIPSGSHKVTLSSWYHDRGWAKISNMTLSNGKLRVNQDGFYYLYANICFRHHETSGSVPTDYLQLMVYVVKTSIKIPSSHNLMKGGSTKNWSGNSEFHFYSINVGGFFKLRAGEEISIQVSNPSLLDPDQDATYFGAFKVQDID
modifications: GST tag
- time for RANKL to overcome the repression of DLL4 by TNFα (DLL4; 20 ng/ml TNFα): ≤ 24 h
- DLL4 expression after additional RANKL (DLL4; mature osteoclasts, 50 ng/ml RANKL and 20 ng/ml TNFα maintained): increased the expression of DLL4; also recorded: overcomes
- TNFα and IL17A produced by peripheral blood cells (immunosuppression) (TNFα and IL17A): immunosuppressive
- osteoclasts occupying bone (ovariectomized mice [1]): fewer osteoclasts occupying bone
- overall effectiveness of treatment (ovariectomized mice [1]): more effective treatment than OC-iTcREG and the bisphosphonate Zoledronic acid by all measurable criteria
- bone mass and bone mineral density (μCT) (ovariectomized mice [1]; comparator OC-iTcREG): more bone mass and bone mineral density relative to the OC-iTcREG treated mice
- serum CTX (ovariectomized mice [1]; comparator OC-iTcREG, listed as low dose RANKL): lower levels of serum CTX compared to mice treated with OC-iTcREG
- serum CTX (ovariectomized mice [1]; comparator OC-iTcREG, listed as low-dose RANKL): serum CTX levels decreased
- bone formation and mineral apposition rates (ovariectomized mice [1]; comparators OC-iTcREG, Zoledronate, listed as low dose RANKL): to a greater extent than Zoledronate and ex vivo generated TcREG; also recorded: increase bone formation and mineral apposition rates than OC-iTcREG treated mice
- TcREG induction in bone marrow (ovariectomized mice [1]; intraperitoneal 0.125 mg/kg): induced TcREG in the bone marrow of ovariectomized mice
- increase in TcREG numbers (average) (ovariectomized mice [1]; low dose RANKL): 1.8 fold
- time a single treatment is effective to limit bone loss / bone resorption (ovariectomized mice [2]; listed as low dose RANKL): approximately 28 days
- time a single treatment is effective to limit bone loss / bone resorption (ovariectomized mice [2]; listed as low-dose RANKL): up to 30 days
